According to patent publication US20250189530A1 (STCUBE, published 2025):

Legend:
[1] = biological target: peptide 4 variant E361A expressed by HEK293T cells (human); experiment: western blot, HEK293T lysate, antibody 1 ug/ml
[2] = biological target: peptide 4 variant T368A expressed by HEK293T cells (human); experiment: western blot, HEK293T lysate, antibody 1 ug/ml
[3] = biological target: peptide 4 variant D369A expressed by HEK293T cells (human); experiment: western blot, HEK293T lysate, antibody 1 ug/ml
[4] = biological target: peptide 4 variant D366A expressed by HEK293T cells (human); experiment: western blot, HEK293T lysate, antibody 1 ug/ml
[5] = biological target: peptide 4 variant V374A expressed by HEK293T cells (human); experiment: western blot, HEK293T lysate, antibody 1 ug/ml
[6] = biological target: peptide 4 variant G365A expressed by HEK293T cells (human); experiment: western blot, HEK293T lysate, antibody 1 ug/ml
[7] = biological target: peptide 4 variant V362A expressed by HEK293T cells (human); experiment: western blot, HEK293T lysate, antibody 1 ug/ml
[8] = biological target: peptide 4 WT expressed by HEK293T cells (human); experiment: western blot, HEK293T lysate, antibody 1 ug/ml
[9] = biological target: TRIM variant expressed by HEK293T cells; experiment: western blot, HEK293T lysate, antibody 1 ug/ml
[10] = biological target: peptide 4 variant V364A expressed by HEK293T cells (human); experiment: western blot, HEK293T lysate, antibody 1 ug/ml
[11] = biological target: peptide 4 variant E363A expressed by HEK293T cells (human); experiment: western blot, HEK293T lysate, antibody 1 ug/ml
[12] = biological target: peptide 4 variant C375A expressed by HEK293T cells (human); experiment: western blot, HEK293T lysate, antibody 1 ug/ml
[13] = biological target: peptide 4 variant R367A expressed by HEK293T cells (human); experiment: western blot, HEK293T lysate, antibody 1 ug/ml
[14] = biological target: peptide 4 variant A371G expressed by HEK293T cells (human); experiment: western blot, HEK293T lysate, antibody 1 ug/ml
[15] = biological target: peptide 4 variant I372A expressed by HEK293T cells (human); experiment: western blot, HEK293T lysate, antibody 1 ug/ml
[16] = biological target: peptide 4 variant W370A expressed by HEK293T cells (human); experiment: western blot, HEK293T lysate, antibody 1 ug/ml
[17] = biological target: T1, MALRD1 peptide TQDSEDDLDWAIGSR; experiment: SPR sensorgrams (Response in RU), series 15.625-500 nM
T1 construct: also called MAM and LDL-receptor class A domain-containing protein 1 isoform X1 peptide
T1 peptide: TQDSEDDLDWAIGSR

[18] = biological target: T2, LDHB peptide VIKLKGYTNWAIGLS; experiment: as above
T2 construct: also called l-lactate dehydrogenase B chain (LDHB) isoform X1 peptide
T2 peptide: VIKLKGYTNWAIGLS

[19] = biological target: T3, hBTN1A1 ICD (human, UniProt Q13410 270-526); experiment: ELISA, stock solution
T3 sequence: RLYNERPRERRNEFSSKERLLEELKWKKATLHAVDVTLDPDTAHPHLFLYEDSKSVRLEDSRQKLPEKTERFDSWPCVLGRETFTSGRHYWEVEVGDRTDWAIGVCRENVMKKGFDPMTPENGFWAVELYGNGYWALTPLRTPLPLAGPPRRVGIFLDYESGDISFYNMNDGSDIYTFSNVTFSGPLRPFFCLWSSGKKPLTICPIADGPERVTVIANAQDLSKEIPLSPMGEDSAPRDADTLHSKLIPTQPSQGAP

[20] = biological target: T4, denatured hBTN1A1 ICD (human, UniProt Q13410 270-526); experiment: ELISA, stock solution
T4 construct: Same protein as hBTN1A1 ICD, denatured before the ELISA; also called hBTN1A1 ICD denatured; Denatured ICD
T4 sequence: T3 sequence

[21] = biological target: peptide 4 variant E361A expressed by HEK293T cells (human); experiment: western blot, STC43H11-1 band over Flag band
[22] = biological target: peptide 4 variant G373A expressed by HEK293T cells (human); experiment: western blot, STC43H11-1 band over Flag band
[23] = biological target: peptide 4 variant T368A expressed by HEK293T cells (human); experiment: western blot, STC43H11-1 band over Flag band
[24] = biological target: peptide 4 variant D369A expressed by HEK293T cells (human); experiment: western blot, STC43H11-1 band over Flag band
[25] = biological target: peptide 4 variant D366A expressed by HEK293T cells (human); experiment: western blot, STC43H11-1 band over Flag band
[26] = biological target: peptide 4 variant V374A expressed by HEK293T cells (human); experiment: western blot, STC43H11-1 band over Flag band
[27] = biological target: peptide 4 variant G365A expressed by HEK293T cells (human); experiment: western blot, STC43H11-1 band over Flag band
[28] = biological target: peptide 4 variant V362A expressed by HEK293T cells (human); experiment: western blot, STC43H11-1 band over Flag band
[29] = biological target: peptide 4 WT expressed by HEK293T cells (human); experiment: western blot, STC43H11-1 band over Flag band
[30] = biological target: TRIM variant expressed by HEK293T cells; experiment: western blot, STC43H11-1 band over Flag band
[31] = biological target: peptide 4 variant V364A expressed by HEK293T cells (human); experiment: western blot, STC43H11-1 band over Flag band
[32] = biological target: peptide 4 variant E363A expressed by HEK293T cells (human); experiment: western blot, STC43H11-1 band over Flag band
[33] = biological target: peptide 4 variant C375A expressed by HEK293T cells (human); experiment: western blot, STC43H11-1 band over Flag band
[34] = biological target: peptide 4 variant R367A expressed by HEK293T cells (human); experiment: western blot, STC43H11-1 band over Flag band
[35] = biological target: peptide 4 variant A371G expressed by HEK293T cells (human); experiment: western blot, STC43H11-1 band over Flag band
[36] = biological target: peptide 4 variant I372A expressed by HEK293T cells (human); experiment: western blot, STC43H11-1 band over Flag band
[37] = biological target: peptide 4 variant W370A expressed by HEK293T cells (human); experiment: western blot, STC43H11-1 band over Flag band

B1: STC43H11-1 (antibody, V domains shown)
VH: QSLEESGGRLVTPGGSLTLTCTVSGIDLSSYAMGWVRQAPGEGLEWIGSIGTGGGTGYASWAKGRFTISKTSTTVDLKMTSLTASDTATYFCATSNLWGPGTLVTVSS
VL: QVLTQTASPVSAAVGGTVTINCQASQSVYNNNRCSWFQQKPGQPPKRLIYHTSTLDSGVPSRFKGSGSGTQFTLTISDVQCDDAATYYCLGNYDCSRADCAAFGGGTEVVVK
notes: From immunized New Zealand rabbits; IgG heavy chain and Kappa light chain; also called clone #43H11; Clone 43H11
[1]
  STC43H11-1 Adj. Vol. (Int): 1.35e+06
[2]
  STC43H11-1 Adj. Vol. (Int): 374000
[3]
  STC43H11-1 Adj. Vol. (Int): 5470
[4]
  STC43H11-1 Adj. Vol. (Int): -228000
[5]
  STC43H11-1 Adj. Vol. (Int): 672000
[6]
  STC43H11-1 Adj. Vol. (Int): 2.26e+06
[7]
  STC43H11-1 Adj. Vol. (Int): 7.03e+06
[8]
  STC43H11-1 Adj. Vol. (Int): 4.02e+06
[9]
  STC43H11-1 Adj. Vol. (Int): -7610
[10]
  STC43H11-1 Adj. Vol. (Int): 480000
[11]
  STC43H11-1 Adj. Vol. (Int): 2.61e+06
[12]
  STC43H11-1 Adj. Vol. (Int): 4.8e+06
[13]
  STC43H11-1 Adj. Vol. (Int): 1.48e+06
[14]
  STC43H11-1 Adj. Vol. (Int): 156000
[15]
  STC43H11-1 Adj. Vol. (Int): 4010
[16]
  STC43H11-1 Adj. Vol. (Int): 221000
[17]
  binding result: no binding (tested: 500 nM)
[18]
  binding result: no binding (tested: 500 nM)
[19]
  ELISA signal: 2.93
[20]
  ELISA signal: 2.87
[21]
  Normalized Fold: 0.231
[22]
  Normalized Fold: 0.0107
[23]
  Normalized Fold: 0.0496
[24]
  Normalized Fold: 0.000853
[25]
  Normalized Fold: -0.0409
[26]
  Normalized Fold: 0.237
[27]
  Normalized Fold: 0.414
[28]
  Normalized Fold: 1.18
[29]
  Normalized Fold: 0.478
[30]
  Normalized Fold: -0.00102
[31]
  Normalized Fold: 0.128
[32]
  Normalized Fold: 0.323
[33]
  Normalized Fold: 1.32
[34]
  Normalized Fold: 0.239
[35]
  Normalized Fold: 0.045
[36]
  Normalized Fold: 0.000608
[37]
  Normalized Fold: 0.0394
